Reference: US20100095387A1 (published 2010)
Each block holds one binder with its values, some of them ahead of it.

Key:
[1] = target: T1, α3 subunit of the Na+/K+-ATPase, endogenous on mouse cells (cortical neurons, cortical slices, cardiac … (mouse, UniProt Q6PIC6 1-1013)); experiment: cell-based or functional assay
[2] = target: T1, α3 subunit of the Na+/K+-ATPase, …; experiment: competition against C-Ag20z8 on live cortical neurons, NIH Image analysis of immunofluorescence; competitor C-Ag20z8

B1: C-Ag20z8, 20-kD COOH-terminal fragment of mouse agrin, z8 splice variant (ligand, not shown: small tags and cut ends)
chain: MDPRTYIEYLNAVTESELTNEIPAEKALQSNHFELTLRTEATQGWLVLWIGKAAERADYMALAIVDGHLQLSYDLASQPVVLRSTVKVNTNRWLRVRAHREHREGSLQVGNEAPVTSSSPLGATQLDTDGALWLGGLQKLPVGQPLPKAYGTGFVGCLRNVVGHRQLHLLEDAVTKPELRPCPTLNSKLGPEQKLISEEDLNSAVDHHHHHH
EC50 of c-fos induction (Fos in situ enzyme-linked immunoassay, cortical cultures) [1]: 0.0112 nM
glutamate-induced Fos expression of agrin-deficient neurons grown 2 d in 5 nM fragment [1]: 2.2 fold

B4: C-Ag20z0, 20-kD COOH-terminal fragment of mouse agrin, z0 splice variant (ligand, not shown: small tags and cut ends)
chain: MDPRTYIEYLNAVTESEKALQSNHFELTLRTEATQGWLVLWIGKAAERADYMALAIVDGHLQLSYDLASQPVVLRSTVKVNTNRWLRVRAHREHREGSLQVGNEAPVTSSSPLGATQLDTDGALWLGGLQKLPVGQPLPKAYGTGFVGCLRNVVGHRQLHLLEDAVTKPELRPCPTLNSKLGPEQKLISEEDLNSAVDHHHHHH
EC50 of c-fos induction (Fos in situ enzyme-linked immunoassay, cortical cultures) [1]: 0.0133 nM
glutamate-induced Fos expression of agrin-deficient neurons grown 2 d in 5 nM fragment [1]: 2.2 fold

Results, then the binder that gave them:

IC50 of inhibition of c-fos induction by 50 pM C-Ag95z8 (cortical cultures, single-site competition model) [1]: 64.5 pM
B2: C-Ag15, 15-kD COOH-terminal fragment of mouse agrin (37 amino acids deleted from the NH2 terminus of C-Ag20) (ligand, not shown: small tags and cut ends)
chain: MDPWIGKAAERADYMALAIVDGHLQLSYDLASQPVVLRSTVKVNTNRWLRVRAHREHREGSLQVGNEAPVTSSSPLGATQLDTDGALWLGGLQKLPVGQPLPKAYGTGFVGCLRNVVGHRQLHLLEDAVTKPELRPCPTLNSKLGPEQKLISEEDLNSAVDHHHHHH

reduction of labeling (mean pixel intensity) at a 1:1 molar ratio [2]: ~30%
B3: rC-Agy4z8, soluble 95-kD COOH-terminal fragment of rat agrin, y4 z8 (ligand, UniProt P25304-5 1153-1951, looked up)
chain: AATGTTAAMATARATTVSRLPASSVTPRVYPSHTSRPVGRTTAPPTTRRPPTTATNMDRPRTPGHQQPSKSCDSQPCLHGGTCQDQDSGKGFTCSCTAGRGGSVCEKVQPPSMPAFKGHSFLAFPTLRAYHTLRLALEFRALETEGLLLYNGNARGKDFLALALLDGRVQFRFDTGSGPAVLTSLVPVEPGRWHRLELSRHWRQGTLSVDGETPVVGESPSGTDGLNLDTNLYVGGIPEEQVAMVLDRTSVGVGLKGCIRMLDINNQQLELSDWQRAAVQSSGVGECGDHPCLPNPCHGGALCQALEAGMFLCQCPPGRFGPTCADEKSPCQPNPCHGAAPCRVLSSGGAKCECPLGRSGTFCQTVLETAGSRPFLADFNGFSYLELKGLHTFERDLGEKMALEMVFLARGPSGLLLYNGQKTDGKGDFVSLALHNRHLEFCYDLGKGAAVIRSKEPIALGTWVRVFLERNGRKGALQVGDGPRVLGESPKSRKVPHTMLNLKEPLYIGGAPDFSKLARGAAVSSGFSGVIQLVSLRGHQLLTQEHVLRAVDVSPFADHPCTQALGNPCLNGGSCVPREATYECLCPGGFSGLHCEKGLVEKSVGDLETLAFDGRTYIEYLNAVIESPETLDSRALFSEKALQSNHFELSLRTEATQGLVLWIGKAAERADYMALAIVDGHLQLSYDLGSQPVVLRSTVKVNTNRWLRIRAHREHREGSLQVGNEAPVTGSSPLGATQLDTDGALWLGGLQKLPVGQALPKAYGTGFVGCLRDVVVGHRQLHLLEDAVTKPELRPCPTP
notes: domain: soluble 95-kD COOH-terminal fragment; Harvested in medium conditioned by transiently transfected COS-7 cells; concentration only estimated; also called Rat C-Ag4,8; rC-Ag95y4z8
